Measurements: patent US20150118286

How the values were obtained:
P17 peptide = tested on: T1, P17 peptide
T1 sequence: RRRYWYYR

P18 peptide = tested on: T2, P18 peptide
T2 sequence: RRYWYWRR

P16 peptide = tested on: T3, P16 peptide
T3 sequence: RRWWRRYY

## Human tyrosinase
P17 peptide
  reduction of human tyrosinase activity at 200 µM (L-dopa substrate): 12% for P17
P18 peptide
  reduction of human tyrosinase activity at 200 µM (L-dopa substrate): 25% for P18
P16 peptide
  reduction of human tyrosinase activity at 200 µM (L-dopa substrate): human tyrosinase activity was reduced by 30% for P16
